According to US20030224397A1 (Genentech, published 2003):
Where a chain is given by its changes, count along the chain named. In names and notes the source's numbering stands. Like-named read-outs stand apart in the source and are kept apart here.

B1: 34-TKKT (VH-(T28D, S100aR)+VL-(S26T, Q27K, D28K, S30T)) (Fab, V domains shown)
VH: EVQLVESGGGLVQPGGSLRLSCAASGYDFTNYGMNWVRQAPGKGLEWVGWINTYTGEPTYAADFKRRFTFSLDTSKSTAYLQMNSLRAEDTAVYYCAKYPHYYGRSHWYFDVWGQGTLVTVSS
VL: DIQLTQSPSSLSASVGDRVTITCSATKKITNYLNWYQQKPGKAPKVLIYFTSSLHSGVPSRFSGSGSGTDFTLTISSLQPEDFATYYCQQYSTVPWTFGQGTKVEIKR
notes: Fab of Y0101 with both altered chains
B2: Fab Y0101 variant, heavy chain E56K (Fab, name in Kabat numbering, V domains shown)
VH: B1 VH with D28T, E57K, R105S
VL: B1 VL with T26S, K27Q, K28D, T30S
notes: Fab of Y0101 with one heavy chain substitution
B3: Fab Y0101 variant, heavy chain S100aR (Fab, name in Kabat numbering, V domains shown)
VH: B1 VH with D28T
VL: B1 VL with T26S, K27Q, K28D, T30S
notes: as for B2
B4: Fab Y0101 variant, heavy chain T28D, S100aR (Fab, V domains shown)
VH: B1 VH
VL: B1 VL with T26S, K27Q, K28D, T30S
notes: Fab; also called altered heavy chain T28D-S100aR
B5: Fab Y0101 variant, heavy chain T28K (Fab, name in Kabat numbering, V domains shown)
VH: B1 VH with D28K, R105S
VL: B1 VL with T26S, K27Q, K28D, T30S
notes: as for B2
B6: Fab Y0101 variant, heavy chain Y99K (Fab, name in Kabat numbering, V domains shown)
VH: B1 VH with D28T, Y103K, R105S
VL: B1 VL with T26S, K27Q, K28D, T30S
notes: as for B2
B7: Fab Y0101 variant, heavy chain Y99R (Fab, name in Kabat numbering, V domains shown)
VH: B1 VH with D28T, Y103R, R105S
VL: B1 VL with T26S, K27Q, K28D, T30S
notes: as for B2
B8: Fab Y0101 variant, light chain L54K (Fab, V domains shown)
VH: B1 VH with D28T, R105S
VL: B1 VL with T26S, K27Q, K28D, T30S, L54K
notes: Fab of Y0101 with one light chain substitution
B9: Fab Y0101 variant, light chain S26K, D28K, S30K (Fab, V domains shown)
VH: B1 VH with D28T, R105S
VL: B1 VL with T26K, K27Q, T30K
notes: Fab of Y0101 with several light chain substitutions
B10: Fab Y0101 variant, light chain S26K, Q27K, D28N, S30T (Fab, V domains shown)
VH: B1 VH with D28T, R105S
VL: B1 VL with T26K, K28N
notes: as for B9
B11: Fab Y0101 variant, light chain S52K, S53K, L54T (Fab, V domains shown)
VH: B1 VH with D28T, R105S
VL: B1 VL with T26S, K27Q, K28D, T30S, S52K, S53K, L54T
notes: as for B9
B12: Fab Y0101 variant, light chain Y32R (Fab, V domains shown)
VH: B1 VH with D28T, R105S
VL: B1 VL with T26S, K27Q, K28D, T30S, Y32R
notes: as for B8

Legend:
[1] = molecular target: T1, short isoform of VEGF (8-109) (UniProt P15692 214-315); test: calculated from k-1 and k1, 0 M NaCl data
T1 construct: range 8-109; Immobilized by amine coupling for SPR; in solution for the fluorescence assay; also called vascular endothelial growth factor
T1 sequence (looked up): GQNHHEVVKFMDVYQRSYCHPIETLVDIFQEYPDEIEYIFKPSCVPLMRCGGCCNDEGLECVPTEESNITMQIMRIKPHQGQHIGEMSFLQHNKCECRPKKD

[2] = molecular target: T1, short isoform of VEGF (8-109); test: SPR (BIAcore), VEGF immobilized, 25 mM Tris pH 7.2, 0 M NaCl, 37 C
Method: (§1) Dissociation rates were measured by surface plasmon resonance on a BIACORE-2000® instrument (BIAcore, Inc.) as described previously (Muller et al. Structure 6(9): 1153-67 (1998)). VEGF was immobilized by amine coupling to a B1 chip at approximately 10 resonance-response units. Fab binding was measured at 1 μM, 500 nM, 250 nM, 125 nM, 62.5 nM, and 31.3 nM. Dissociation was calculated assuming a one-to-one binding model. All experiments were performed at 37° C. in phosphate buffered saline solution, pH 7.2, containing 0.05% Tween-20, 0.01% NaN3 and at a flow rate of 20 μL min⁻¹.
(§2) Residues are numbered according the Kabat system (Kabat et al. Sequences of Proteins of Immunological Interest, 5th Edition., National Institute of Health, Bethesda, Md. (1991)). k₁ determined by the fluorescence-based assay (±standard deviation of three experiments). k₋₁ determined by surface plasmon resonance (±standard deviation of 12 experiments). k₁ and k₋₁ (0 M NaCl) experiments were performed in 25 mM Tris, pH 7.2, at 37° C. k₋₁ (0.15 M NaCl) experiments performed in 25 mM Tris, 150 mM NaCl, at 25° C.

[3] = molecular target: T1, short isoform of VEGF (8-109); test: fluorescence-based association assay in solution, 25 mM Tris pH 7.2, 37 C
Method: (§3) In the experiments described here, the fluorescence emission intensity (λexcitation=295 nm; λₑₘᵢₛₛᵢₒₙ=340 nm, 16 nm bandpass) was measured using an 8000-series SLM-Aminco spectrophotometer (THERMOSPECTRONIC®) as VEGF was added to a stirred cuvette containing approximately 10 nM Fab in 25 mM Tris, pH 7.2, held at 37° C.
as §2

[4] = molecular target: T1, short isoform of VEGF (8-109); test: as above; remark: listed apart in the source
Method: as §3

[5] = molecular target: T1, short isoform of VEGF (8-109); test: SPR (BIAcore), VEGF immobilized, 25 mM Tris, 150 mM NaCl, 25 C
[6] = molecular target: T1, short isoform of VEGF (8-109); test: fluorescence-based association assay at varied salt concentration
Method: as §3

[7] = molecular target: T1, short isoform of VEGF (8-109); test: fluorescence-based association assay in solution, 25 mM Tris pH 7.2, 37 C; remark: listed apart in the source
Method: as §3
as §2, with “three experiments, wild-type only).” for “three experiments).”

[8] = molecular target: T1, short isoform of VEGF (8-109); test: calculated from k-1 and k1, 0 M NaCl data; remark: listed apart in the source
[9] = molecular target: T1, short isoform of VEGF (8-109); test: SPR (BIAcore), VEGF immobilized, 25 mM Tris pH 7.2, 0 M NaCl, 37 C; remark: listed apart in the source
Method: as §1
as §2, with “three experiments, wild-type only).” for “three experiments).”

[10] = molecular target: T1, short isoform of VEGF (8-109); test: SPR (BIAcore), VEGF immobilized, 25 mM Tris, 150 mM NaCl, 25 C; remark: listed apart in the source

Binder	kon [3] [M⁻¹ s⁻¹]	kon [7] [M⁻¹ s⁻¹]	Kd [8] [nM]	koff [9] [s⁻¹]	other results
B1	3.3e+06	–	–	–	Kd [1]: 0.08 nM; koff [2]: 0.00026 s⁻¹; fold higher association rate than Y0101 [4]: 6 fold; koff [5]: 2e-05 s⁻¹; fold difference in association rate against Y0101 in 150 mM NaCl [6]: < 2 fold
B2	–	480000	0.9	0.00044	–
B3	–	870000	0.3	0.00024	koff [10]: 7e-05 s⁻¹
B4	1.4e+06	–	–	–	koff [5]: 0.00011 s⁻¹
B5	–	360000	–	–	–
B6	–	380000	0.4	0.00015	koff [10]: 0.00014 s⁻¹
B7	–	600000	0.2	0.00014	koff [10]: 0.00016 s⁻¹
B8	–	440000	–	–	–
B9	1.3e+06	–	–	–	–
B10	610000	–	–	–	–
B11	1.3e+06	–	–	–	–
B12	–	710000	–	–	–
